Patent US20040077054A1

Columns and labels:
[1] = biological target: 16K hPRL binding sites in human placental membrane fractions (human); test: specific binding of 100 pM 125I-16K rPRL (counts displaced by 400 nM 16K hPRL), second trimester placental membranes, n=3
[2] = biological target: 16K hPRL binding sites in human placental membrane fractions (human); test: specific binding of 100 pM 125I-16K rPRL (counts displaced by 400 nM 16K hPRL), first trimester placental membranes, n=4
[3] = biological target: 16K hPRL binding sites in human placental membrane fractions (human); test: specific binding of 100 pM 125I-16K rPRL (counts displaced by 400 nM 16K hPRL), third trimester placental membranes, n=3
[4] = biological target: 16K hPRL binding sites in human placental membrane fractions (human); test: Scatchard analysis, radioligand binding, third trimester human placental membranes
[5] = biological target: 16K hPRL binding sites in human placental membrane fractions (human); test: Scatchard analysis, radioligand binding, second trimester human placental membranes
[6] = biological target: 16K hPRL binding sites in human placental membrane fractions (human); test: Scatchard analysis, radioligand binding, first trimester human placental membranes

“125I-16K rPRL (rat 16K prolactin, radioiodinated) (from UniProt P01237 30-174) (ligand)” showed a maximal specific binding (cpm/5 µg protein) [1] of 1780, a maximal specific binding (cpm/5 µg protein) [2] of 357 and a maximal specific binding (cpm/5 µg protein) [3] of 4040.
With 16K N-terminal human prolactin (ligand) the maximal binding (Bmax) (fmol/µg protein) [4] was 775, the maximal binding (Bmax) (fmol/µg protein) [5] was 630 and the maximal binding (Bmax) (fmol/µg protein) [6] was 3.19.
